First the molecules themselves.
B1: I-1268 (peptide)
peptide: Ac-[αAllylPro]D[tBuAla][B5(3)]DTAA[Phe(3-CF3)]T[PyrS2″]F[Bta]S-NH2
modifications: staple 1-4; staple 4-11 (inferred); not fully specified; printed as Ac-PL3-Asp-Npg-B5-Asp-Thr-Ala-Ala-3F3MeF-Thr-PyrS2-Phe-BztA-Ser-NH2
B2: I-2182 (peptide)
peptide: Ac-[αAllylPro]D[tBuAla][B5(4)]DDAAFN[PyrS2″][3Thi][34ClF]Q-NH2
modifications: staple 1-4, 4-11; reading uncertain; also: printed as Ac-PL3-Asp-Npg-B5-Asp-Asp-Ala-Ala-Phe-Asn-PyrS2-3Thi-34C1F-Gln-NH2

Starred links: 1 amine or outer side, 2 acyl side, 3 side chain; linkers in the order of their positions; H or OH if unused. Positions of bridges follow the written chain, without caps; N, C: chain ends. Non-standard residues stand in square brackets, D forms with d. Primed or numbered codes have the meaning given here. PyrS2″ = (S)-3-amino-1-((pent-4-en-1-yloxy)carbonyl)pyrrolidine-3-carboxylic acid (stapling residue), C=CCCCOC(=O)N1CC[C@@](N[*:1])(C(=O)[*:2])C1; B5(16) = 2-amino-2-(pent-4-en-1-yl)hept-6-enoic acid = 2,2-bis(4-pentenyl)glycine (stitching residue), C=CCCCC(CCCC=C)(N[*:1])C(=O)[*:2]; B5(4) = 2,2-bis(4-pentenyl)glycine = 2-amino-2-(pent-4-en-1-yl)hept-6-enoic acid (stitching residue), C=CCCCC(CCCC=C)(N[*:1])C(=O)[*:2]; B5(5) = 2,2-bis(4-pentenyl)glycine, 2-amino-2-(pent-4-en-1-yl)hept-6-enoic acid (stitching residue), C=CCCCC(CCCC=C)(N[*:1])C(=O)[*:2]; PyrS2 = (S)-3-amino-1-((pent-4-en-1-yloxy)carbonyl)pyrrolidine-3-carboxylic acid, C=CCCCOC(=O)N1CC[C@@](N[*:1])(C(=O)[*:2])C1; (NMe2)GlnR(3) = [NMe2]GlnR, N5,N5-dimethyl-L-glutamine, CN(C)C(=O)CC[C@H](N[*:1])C(=O)[*:2]; B5(3) = 2,2-bis(4-pentenyl)glycine (stitching residue), C=CCCCC(CCCC=C)(N[*:1])C(=O)[*:2]; B5 = 2-amino-2-(pent-4-en-1-yl)hept-6-enoic acid, C=CCCCC(CCCC=C)(N[*:1])C(=O)[*:2]; Me2Asn = listed as N4-methyl-L-asparagine, CNC(=O)C[C@H](N[*:1])C(=O)[*:2]; Phe(3-CF3) = N[C@@H](Cc1cccc(C(F)(F)F)c1)C(=O)O; Phe(3-COOH) = N[C@@H](Cc1cccc(C(=O)O)c1)C(=O)O; Phe(2-CF3) = N[C@@H](Cc1ccccc1C(F)(F)F)C(=O)O; Phe(2-Cl) = N[C@@H](Cc1ccccc1Cl)C(=O)O; Bta = N[C@@H](Cc1csc2ccccc12)C(=O)O; Lys(iPr) = CC(C)NCCCC[C@H](N)C(=O)O; αAllylPro = C=CC[C@@]1(C(=O)O)CCCN1; tBuAla = CC(C)(C)C[C@H](N)C(=O)O; 3Thi = N[C@@H](Cc1ccsc1)C(=O)O; Cha = N[C@@H](CC1CCCCC1)C(=O)O; Cit = NC(=O)NCCC[C@H](N)C(=O)O; S8 = C=CCCCCCC[C@](C)(N)C(=O)O; hSer = N[C@@H](CCO)C(=O)O; 34ClF = not defined here; Nle = CCCC[C@H](N)C(=O)O; Aib = CC(C)(N)C(=O)O

One may read the IC50 as the point on the concentration scale where inhibition reaches its midpoint. A high value points to lower potency. The term EC50 denotes the midpoint of the concentration-response curve.

The first experiment concerns the target full-length beta-Catenin (Uniprot ID P35222) (Homo sapiens (Human)) (UniProt P35222). In words: fluorescence polarization competition vs 5FAM-TCF4(10-53) on full-length beta-catenin. Background: Fluorescence polarisation rises when a labelled molecule tumbles more slowly, as on binding a larger partner.
Target sequence in this assay (P35222 2-781 limits assumed): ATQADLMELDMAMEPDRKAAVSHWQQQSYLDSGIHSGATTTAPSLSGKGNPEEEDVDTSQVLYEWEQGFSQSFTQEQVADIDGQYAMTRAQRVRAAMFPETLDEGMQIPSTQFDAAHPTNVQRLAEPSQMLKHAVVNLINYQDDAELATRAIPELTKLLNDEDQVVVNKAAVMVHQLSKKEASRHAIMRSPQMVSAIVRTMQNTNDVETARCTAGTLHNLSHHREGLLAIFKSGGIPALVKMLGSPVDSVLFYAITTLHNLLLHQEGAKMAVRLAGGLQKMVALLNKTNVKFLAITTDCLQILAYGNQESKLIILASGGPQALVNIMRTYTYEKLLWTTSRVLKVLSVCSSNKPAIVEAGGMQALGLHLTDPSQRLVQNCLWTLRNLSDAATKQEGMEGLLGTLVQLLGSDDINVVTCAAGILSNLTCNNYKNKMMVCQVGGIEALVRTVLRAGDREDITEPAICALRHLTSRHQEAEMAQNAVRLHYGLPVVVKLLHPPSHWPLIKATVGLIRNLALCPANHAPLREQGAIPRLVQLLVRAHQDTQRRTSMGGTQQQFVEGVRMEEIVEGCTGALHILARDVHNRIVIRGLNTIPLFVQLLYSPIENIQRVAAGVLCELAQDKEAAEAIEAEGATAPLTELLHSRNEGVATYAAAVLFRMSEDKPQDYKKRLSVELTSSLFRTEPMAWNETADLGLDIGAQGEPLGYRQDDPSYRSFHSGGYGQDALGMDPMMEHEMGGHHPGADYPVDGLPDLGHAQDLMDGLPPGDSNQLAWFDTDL
Take Ac-[αAllylPro]D[Cha][B5(4)]DDLLFS[PyrS2″][Phe(2-Cl)][Bta]Q-NH2 (staple 1-4, 4-11) [I-1149]: the IC50 was 70 nM.

The next experiment has the same target. In words: fluorescence polarization competition; full-length beta-catenin + 5FAM-TCF4(10-53) probe.
Target sequence in this assay (P35222 whole entry): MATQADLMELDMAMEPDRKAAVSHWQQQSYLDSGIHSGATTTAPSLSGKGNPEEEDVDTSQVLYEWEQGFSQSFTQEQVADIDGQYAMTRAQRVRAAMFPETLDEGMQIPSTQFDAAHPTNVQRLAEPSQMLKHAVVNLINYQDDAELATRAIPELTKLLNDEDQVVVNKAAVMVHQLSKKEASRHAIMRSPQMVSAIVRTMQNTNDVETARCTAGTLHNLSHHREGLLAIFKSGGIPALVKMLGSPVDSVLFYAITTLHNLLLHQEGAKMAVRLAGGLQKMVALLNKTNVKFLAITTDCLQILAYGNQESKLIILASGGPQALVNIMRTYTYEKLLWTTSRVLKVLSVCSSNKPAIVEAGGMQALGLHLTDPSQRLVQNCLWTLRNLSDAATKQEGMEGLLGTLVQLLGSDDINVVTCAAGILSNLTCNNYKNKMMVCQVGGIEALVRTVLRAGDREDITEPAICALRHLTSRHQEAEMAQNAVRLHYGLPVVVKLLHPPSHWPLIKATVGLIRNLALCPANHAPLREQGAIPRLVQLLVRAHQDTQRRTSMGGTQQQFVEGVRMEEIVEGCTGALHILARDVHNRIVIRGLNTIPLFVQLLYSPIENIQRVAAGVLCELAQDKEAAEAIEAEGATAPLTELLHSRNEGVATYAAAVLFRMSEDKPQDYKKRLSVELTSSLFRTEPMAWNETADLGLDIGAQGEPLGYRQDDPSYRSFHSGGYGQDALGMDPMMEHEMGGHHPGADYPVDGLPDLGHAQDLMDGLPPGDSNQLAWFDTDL
For the molecule B1, the EC50 amounted to 198 nM.

The next experiment has the same target. In words: fluorescence polarization competition; full-length beta-catenin with 5FAM-TCF4(10-53) probe as competitor.
Target sequence in this assay (P35222 whole entry): as above
Turning to Ac-[αAllylPro]DL[B5]DEAAF[Cit][S8]F[Bta]H-NH2 (staple 1-4, 4-11) [I-616], the IC50 came out at 108 nM.
For the molecule Ac-[αAllylPro]D[Cha][B5(4)]DEAAFN[S8]F[Bta]Q-NH2 (staple 1-4, 4-11; also: earlier-eluting staple isomer) [I-619], the IC50 was 44 nM.
The same measure, in the same setting: next, Ac-[αAllylPro]DL[B5(4)]DEAAF[Cit][S8]F[Bta]Q-NH2 (staple 1-4, 4-11) [I-621]: 58 nM.
Same read-out and setting: the same measure for Ac-[αAllylPro]D[Cha][B5(16)]DEAAFN[S8]F[Bta]Q-NH2 (staple 1-4, 4-11; also: later-eluting staple isomer composition) [I-620]: 35 nM; for Ac-[αAllylPro]DL[B5(4)]DEAAFN[S8]F[Bta]-NH2 (staple 1-4, 4-11; also: earlier-eluting staple isomer) [I-624]: 273 nM; for Ac-[αAllylPro]DL[B5(4)]DEAAFN[S8]F[Bta]-NH2 (staple 1-4, 4-11; also: later-eluting staple isomer) [I-625]: 119 nM.

The target is the same in the next experiment. In words: fluorescence polarization competition; peptide titrated against 10 nM full-length beta-catenin + 10 nM 5FAM-TCF4(10-53) probe.
Target sequence in this assay (P35222 whole entry): as above
Ac-[αAllylPro]DL[B5]DEAAF[Cit][S8]F[Bta]H-NH2 (staple 1-4, 4-11) [I-616]: the EC50 worked out at 108 nM.
On the same count and under the same terms, the same measure for Ac-[αAllylPro]D[Cha][B5(4)]DEAAFN[S8]F[Bta]Q-NH2 (staple 1-4, 4-11; also: earlier-eluting staple isomer) [I-619]: 44 nM; for Ac-[αAllylPro]DL[B5(4)]DEAAF[Cit][S8]F[Bta]Q-NH2 (staple 1-4, 4-11) [I-621]: 58 nM; for Ac-[αAllylPro]D[Cha][B5(16)]DEAAFN[S8]F[Bta]Q-NH2 (staple 1-4, 4-11; also: later-eluting staple isomer composition) [I-620]: 35 nM.
Still for that read-out and setting: the same measure for Ac-[αAllylPro]DL[B5(4)]DEAAFN[S8]F[Bta]-NH2 (staple 1-4, 4-11; also: earlier-eluting staple isomer) [I-624]: 273 nM; for Ac-[αAllylPro]DL[B5(4)]DEAAFN[S8]F[Bta]-NH2 (staple 1-4, 4-11; also: later-eluting staple isomer) [I-625]: 119 nM.

The target is the same in another experiment. In words: fluorescence polarization competition, 5FAM-TCF4 10-53 probe on full-length beta-catenin.
Target sequence in this assay (P35222 2-781 limits assumed): as the sequence (P35222 2-781 limits assumed) above
The molecule Ac-[αAllylPro]D[Cha][B5(5)]DDAAF[Cha][PyrS2″][Phe(2-Cl)][Bta]S-NH2 (staple 1-4, 4-11) [I-1113] gave an EC50 of 64 nM.
The same measure, in the same setting: next, Ac-[αAllylPro]D[Cha][B5(4)]DDLLFS[PyrS2″][Phe(2-Cl)][Bta]Q-NH2 (staple 1-4, 4-11) [I-1149]: 70 nM.

Another experiment has the same target. In words: fluorescence polarization competition; 10 nM full-length beta-catenin, 10 nM 5FAM-TCF4(10-53) probe.
With Ac-[αAllylPro]D[tBuAla][B5(4)]D[Phe(3-COOH)][Me2Asn]AFL[PyrS2″][3Thi][Bta]V-NH2 (staple 1-4, 4-11) [I-2191], the IC50 worked out at 16 nM.
On the same count and under the same terms, the same measure for Ac-[αAllylPro]D[tBuAla][B5(4)]D[Phe(3-COOH)][Aib]AFL[PyrS2″][3Thi][Bta][tBuAla]-NH2 (staple 1-4, 4-11) [I-2194]: 91 nM.
Still for that read-out and setting: the same measure for Ac-[αAllylPro]D[tBuAla][B5(4)]D[Phe(3-COOH)]QAFL[PyrS2″][3Thi][Bta][tBuAla]-NH2 (staple 1-4, 4-11) [I-2192]: 22 nM; for Ac-[αAllylPro]N[tBuAla][B5(5)]DQ[Lys(iPr)]AF[Lys(iPr)][PyrS2″]F[Bta][Lys(iPr)]-NH2 (staple 1-4, 4-11) [I-1654]: 2130 nM.
Still for that read-out and setting: the same measure for Ac-[αAllylPro]N[tBuAla][B5(4)]DQ[Lys(iPr)]AFL[PyrS2]F[Bta][tBuAla]-NH2 (staple 1-4, 4-11) [I-1644]: 10000 nM.
In turn, Ac-[αAllylPro]N[tBuAla][B5(5)]DQ[Lys(iPr)]AFL[PyrS2″][Cha][Bta]Q-NH2 (staple 1-4, 4-11) [I-1651] gave an IC50 of 3970 nM.
Same read-out and setting: the same measure for Ac-[αAllylPro]N[tBuAla][B5(5)]DQ[Lys(iPr)]AFL[PyrS2″]F[Bta][Cha]-NH2 (staple 1-4, 4-11) [I-1652]: 10000 nM; for Ac-[αAllylPro]D[tBuAla][B5(4)]D[Phe(3-COOH)][Me2Asn]AFL[PyrS2″][3Thi][Bta][tBuAla]-NH2 (staple 1-4, 4-11) [I-2196]: 41 nM.
Same read-out and setting: the same measure for Ac-[αAllylPro]D[tBuAla][B5(4)]D[Phe(3-COOH)][Aib]AF[Nle][PyrS2″][3Thi][Bta][(NMe2)GlnR(3)]-NH2 (staple 1-4, 4-11) [I-2551]: 8 nM; for Ac-[αAllylPro]N[tBuAla][B5(4)]DQ[Lys(iPr)]AFL[PyrS2]F[Bta]K-NH2 (staple 1-4, 4-11) [I-1643]: 822 nM.
Same read-out and setting: the same measure for Ac-[αAllylPro]D[tBuAla][B5(4)]D[Phe(3-COOH)][Nle]AFL[PyrS2″][3Thi][Bta]V-NH2 (staple 1-4, 4-11) [I-2189]: 83 nM.
In turn, Ac-[αAllylPro]D[tBuAla][B5(4)]D[Phe(3-COOH)]AAFF[PyrS2″][Phe(2-CF3)][Bta][MorphGln]-NH2 (staple 1-4, 4-11) [I-2543] returned an IC50 of 37 nM.
Same read-out and setting: next, Ac-[αAllylPro]N[tBuAla][B5(5)]DQ[Lys(iPr)]AF[Cha][PyrS2]F[Bta]Q-NH2 (staple 1-4, 4-11) [I-1650]: 1680 nM; Ac-[αAllylPro]N[tBuAla][B5(4)]DQ[Lys(iPr)]AFL[PyrS2]F[Bta][hSer]-NH2 (staple 1-4, 4-11) [I-1646]: 640 nM; Ac-[αAllylPro]D[tBuAla][B5(4)]D[Phe(3-COOH)]AAFF[PyrS2″][Phe(2-CF3)][Bta][Me2Gln]-NH2 (staple 1-4, 4-11) [I-2534]: 21 nM.
On the same count and under the same terms, next, Ac-[αAllylPro]N[tBuAla][B5(4)]DQ[Lys(iPr)]A[Cha]L[PyrS2]F[Bta]Q-NH2 (staple 1-4, 4-11) [I-1649]: 2480 nM; Ac-[αAllylPro]D[tBuAla][B5(4)]D[Phe(3-COOH)]AAFL[PyrS2″][Phe(2-CF3)][Bta][MorphGln]-NH2 (staple 1-4, 4-11) [I-2541]: 21 nM.
In turn, Ac-[αAllylPro]N[tBuAla][B5(5)]DQ[Lys(iPr)]AF[Lys(iPr)][PyrS2″]F[Bta]Q-NH2 (staple 1-4, 4-11) [I-1653] showed an IC50 of 903 nM.
Same read-out and setting: the same measure for Ac-[αAllylPro]D[tBuAla][B5(4)]D[Phe(3-COOH)][Nle]AFL[PyrS2″][3Thi][Bta][tBuAla]-NH2 (staple 1-4, 4-11) [I-2193]: 164 nM.
B2 gave an IC50 of 5 nM.
The same measure, in the same setting: the same measure for Ac-[αAllylPro]N[tBuAla][B5(4)]DQ[Lys(iPr)]AFL[PyrS2]F[Bta][Lys(iPr)]-NH2 (staple 1-4, 4-11) [I-1645]: 940 nM; for Ac-[αAllylPro]D[tBuAla][B5(4)]D[Phe(3-COOH)]SAFL[PyrS2″][3Thi][Bta][tBuAla]-NH2 (staple 1-4, 4-11) [I-2195]: 62 nM; for Ac-[αAllylPro]D[tBuAla][B5(4)]D[Phe(3-COOH)][Aib]AF[Nle][PyrS2″][3Thi][Bta][(NHEt)GlnR]-NH2 (staple 1-4, 4-11) [I-2552]: 12 nM.

For a further experiment the target is unchanged. In words: fluorescence polarization competition; displacement of 5FAM-TCF4(10-53) from full-length beta-catenin.
Target sequence in this assay (P35222 whole entry): as the sequence (P35222 whole entry) above
In turn, Ac-[αAllylPro]D[Cha][B5(5)]DDAAF[Cha][PyrS2″][Phe(2-Cl)][Bta]S-NH2 (staple 1-4, 4-11) [I-1113] gave an IC50 of 64 nM.

For the origin of these results see patent US20240116985A1, “STAPLED PEPTIDES AND METHODS THEREOF” (priority 2020, published 2024).
